What was measured:
Test in all cases: cell-based or functional assay
[1] = target: HIV-1 93RW029 envelope glycoprotein (Env) (HIV-1)
[2] = target: HIV-1 Env of isolate 92UG046 (HIV-1)
[3] = target: HIV-1 Env of isolate 92UG046 (clade D) (HIV-1)
[4] = target: HIV-1 Env of isolate CMU02 (HIV-1)
[5] = target: HIV-1 Env of isolate MGRM-D-002 (HIV-1)
[6] = target: HIV-1 Env of isolate MGRM-D-011 (HIV-1)
[7] = target: HIV-1 Env of isolate MGRM-F1-016 (HIV-1)
[8] = target: HIV-1 Env of isolate MGRM-G-017 (subtype G) (HIV-1)
[9] = target: HIV-1 Env of isolate MGRM-G-028 (subtype G) (HIV-1)
[10] = target: HIV-1 Env of pseudovirus MGRM-Chronic-B-008, clade B (HIV-1)
[11] = target: HIV-1 Env of pseudovirus THR0.18 (Acute), clade B (HIV-1)
[12] = target: HIV-1 Env of isolate MG RM-AG-011 (HIV-1)
[13] = target: HIV-1 Env of isolate MG RM-D-002 (subtype D) (HIV-1)
[14] = target: HIV-1 Env of isolate MG RM-D-012 (subtype D) (HIV-1)
[15] = target: HIV-1 Env of isolate MGRM-C-015 (pseudovirus) (HIV-1 isolate MGRM-C-015, subtype C)
[16] = target: HIV-1 Env of isolate MGRM-C-020 (pseudovirus) (HIV-1 isolate MGRM-C-020, subtype C)
[17] = target: HIV-1 Env of isolate MGRM-F1-004 (subtype F) (HIV-1)
[18] = target: HIV-1 Env of isolate MGRM-F1-008 (subtype F) (HIV-1)
[19] = target: HIV-1 Env of isolate MGRM-F1-012 (subtype F) (HIV-1)
[20] = target: HIV-1 Env of isolate MGRM-F1-018 (HIV-1)
[21] = target: HIV-1 MGRM-Chronic-B-004 Env (pseudovirus) (HIV-1)
[22] = target: HIV-1 SC422661.8 Env (pseudovirus) (HIV-1)
[23] = target: HIV-1 THR0.18 Env (pseudovirus) (HIV-1)
[24] = target: HIV-1 JR-CSF Env R166A (HIV-1 (isolate JR-CSF)) (UniProt P20871)
[25] = target: HIV-1 Env of isolate MGRM-C-026 (HIV-1)
[26] = target: HIV-1 Env of isolate MGRM-D-018 (HIV-1)
[27] = target: HIV-1 Env of isolate 97ZA012 (HIV-1)
[28] = target: HIV-1 Env of isolate PVO.4 (HIV-1)

PGT-142 (4995_E20) (antibody), sequence (VH): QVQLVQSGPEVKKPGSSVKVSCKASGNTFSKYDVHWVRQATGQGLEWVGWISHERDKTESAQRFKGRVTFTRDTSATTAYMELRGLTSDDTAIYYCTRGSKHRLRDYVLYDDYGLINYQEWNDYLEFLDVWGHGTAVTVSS
PGT-142 (4995_E20) (antibody), sequence (VL): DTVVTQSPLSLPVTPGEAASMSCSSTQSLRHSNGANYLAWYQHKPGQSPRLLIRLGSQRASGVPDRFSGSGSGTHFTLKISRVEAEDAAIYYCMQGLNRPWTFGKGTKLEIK
PGT-143 (4980_N08) (antibody), sequence (VH): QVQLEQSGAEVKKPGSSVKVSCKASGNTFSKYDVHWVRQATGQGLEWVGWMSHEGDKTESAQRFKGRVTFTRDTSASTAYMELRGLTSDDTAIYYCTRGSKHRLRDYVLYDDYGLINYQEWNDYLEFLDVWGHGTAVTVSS
PGT-143 (4980_N08) (antibody), sequence (VL): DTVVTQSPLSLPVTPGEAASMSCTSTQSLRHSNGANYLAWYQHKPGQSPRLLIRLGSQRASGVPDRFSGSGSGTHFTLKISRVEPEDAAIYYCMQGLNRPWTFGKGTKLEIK
PGT-144 (4970_K22) (antibody), sequence (VH): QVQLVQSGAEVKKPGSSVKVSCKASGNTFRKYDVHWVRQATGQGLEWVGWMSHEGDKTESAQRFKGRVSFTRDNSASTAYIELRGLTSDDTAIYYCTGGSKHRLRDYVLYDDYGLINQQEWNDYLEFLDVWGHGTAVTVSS
PGT-144 (4970_K22) (antibody), sequence (VL): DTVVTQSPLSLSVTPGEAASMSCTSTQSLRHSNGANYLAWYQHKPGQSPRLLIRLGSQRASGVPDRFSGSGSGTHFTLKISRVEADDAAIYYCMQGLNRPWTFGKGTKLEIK
PGT-141 (4964_G22; 4993_K13) (antibody), sequence (VH): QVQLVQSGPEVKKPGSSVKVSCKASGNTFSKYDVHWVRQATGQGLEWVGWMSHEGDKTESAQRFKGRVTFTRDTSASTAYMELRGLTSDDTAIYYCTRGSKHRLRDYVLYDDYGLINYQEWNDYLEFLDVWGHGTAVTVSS

| Substance | neutralization IC50 [8] [µg/mL] | neutralization IC50 [9] [µg/mL] | neutralization IC50 [12] [µg/mL] | IC50 (µg/mL), pseudovirus neutralization [13] [µg/mL] | IC50 (µg/mL), pseudovirus neutralization [14] [µg/mL] | IC50 (µg/mL) neutralization [15] [µg/mL] | IC50 (µg/mL) neutralization [16] [µg/mL] | IC50 (µg/mL), pseudovirus neutralization [17] [µg/mL] | IC50 (µg/mL), pseudovirus neutralization [18] [µg/mL] | IC50 (µg/mL), pseudovirus neutralization [19] [µg/mL] | IC50 [7] [µg/mL] | IC50 [20] [µg/mL] | IC50, pseudovirus neutralization [21] [µg/mL] | IC50, pseudovirus neutralization [22] [µg/mL] | IC50, pseudovirus neutralization [23] [µg/mL] | other results |
| --- | --- | --- | --- | --- | --- | --- | --- | --- | --- | --- | --- | --- | --- | --- | --- | --- |
| 1496_C09 (PG9) (TCN-109) (antibody) | 0.104 | 0.891 |  |  |  |  |  |  |  |  |  |  |  |  |  | IC50 (µg/ml), pseudovirus neutralization [1]: 1.19 µg/mL; IC50 (µg/mL), pseudovirus neutralization [2]: 1.86 µg/mL; IC50 (µg/ml), pseudovirus neutralization [3]: 0.64 µg/mL; IC50 (µg/ml), pseudovirus neutralization [4]: 7.69 µg/mL; IC50 (µg/mL), pseudovirus neutralization [5]: 0.021 µg/mL; IC50 (µg/mL), pseudovirus neutralization [6]: 0.071 µg/mL; IC50 (µg/mL), pseudovirus neutralization [7]: 0.518 µg/mL; IC50 (µg/ml), pseudovirus neutralization [10]: 6.66 µg/mL; IC50 (µg/ml), pseudovirus neutralization [11]: 12.4 µg/mL |
| 4838_L06 (PGT-121) (antibody) |  |  | > 50 | 0.006 | > 50 | 25.1 | > 50 | 1.67 | > 50 | 1.91 | 0.931 | 0.04 | 0.009 | 0.098 | > 50 |  |
| 4858_P08 (PGT-123) (antibody) |  |  | > 50 | 0.012 | > 50 | 13.1 | > 50 | 1.78 | > 50 | 22.2 | 4.95 | 0.054 | 0.008 | 0.039 | > 50 | Fold IC50 increase relative to wild-type [24]: 0.9 fold |
| 4877_D15 (PGT-122) (antibody) |  |  | > 50 | 0.005 | > 50 | > 50 | 14 | 1.29 | > 50 | > 50 | 4.81 | 0.563 | 0.008 | 0.103 | > 50 |  |
| 5123_A06 (PGT-125) (antibody) |  |  | > 50 | 0.118 | > 50 | > 50 | > 50 | > 50 | 0.361 | > 50 | > 50 | > 50 | 0.007 | 30.1 | > 50 | Fold IC50 increase relative to wild-type [24]: 1.5 fold |
| PGT-121 (antibody) |  |  |  |  |  |  |  |  |  |  |  |  |  |  |  | IC50 (µg/mL), pseudovirus neutralization [4]: > 50 µg/mL; Primary Neutralization Index (B cell culture well 4838 L06) [25]: 996; Primary Neutralization Index (B cell culture well 4873 E03) [25]: 371 |
| PGT-122 (antibody) |  |  |  |  |  |  |  |  |  |  |  |  |  |  |  | IC50 (µg/mL), pseudovirus neutralization [4]: > 50 µg/mL |
| PGT-141 (4964_G22; 4993_K13) (antibody) | 0.164 | 24.9 |  |  |  |  |  |  |  |  |  |  |  |  |  |  |
| PGT-142 (4995_E20) (antibody) | 0.125 | 30.3 |  |  |  |  |  |  |  |  |  |  |  |  |  |  |
| PGT-143 (4980_N08) (antibody) | 0.107 | 43 |  |  |  |  |  |  |  |  |  |  |  |  |  |  |
| PGT-144 (4970_K22) (antibody) | 9.97 | > 50 |  |  |  |  |  |  |  |  |  |  |  |  |  |  |
| PGV04 (antibody) | 0.065 | 0.352 |  |  |  |  |  |  |  |  |  |  |  |  |  | IC50 (µg/mL), pseudovirus neutralization [2]: 22.4 µg/mL; IC50 (µg/mL), pseudovirus neutralization [4]: 1.24 µg/mL; IC50 (µg/mL), pseudovirus neutralization [5]: 0.322 µg/mL; IC50 (µg/mL), pseudovirus neutralization [6]: 0.025 µg/mL; IC50 (µg/mL), pseudovirus neutralization [26]: 17.5 µg/mL; IC50 (µg/mL), pseudovirus neutralization [7]: 0.268 µg/mL |
| VRC01 (antibody) | 0.124 | 0.164 |  |  |  |  |  |  |  |  |  |  |  |  |  | neutralization IC50 [27]: 0.088 µg/mL; IC50, pseudovirus neutralization [6]: 0.075 µg/mL; IC50, pseudovirus neutralization [26]: > 50 µg/mL; IC50, pseudovirus neutralization [7]: 0.517 µg/mL; IC50, pseudovirus neutralization [20]: 0.032 µg/mL; neutralization IC50 [28]: 0.218 µg/mL |

From patent US20200024330A1
